The assay concerns the target adenosine A2A receptor (human (endogenous in postmortem ventral …, UniProt P29274 1-412)). Briefly: proximity ligation.

Chain of adenosine A2A receptor (human (P29274 whole entry): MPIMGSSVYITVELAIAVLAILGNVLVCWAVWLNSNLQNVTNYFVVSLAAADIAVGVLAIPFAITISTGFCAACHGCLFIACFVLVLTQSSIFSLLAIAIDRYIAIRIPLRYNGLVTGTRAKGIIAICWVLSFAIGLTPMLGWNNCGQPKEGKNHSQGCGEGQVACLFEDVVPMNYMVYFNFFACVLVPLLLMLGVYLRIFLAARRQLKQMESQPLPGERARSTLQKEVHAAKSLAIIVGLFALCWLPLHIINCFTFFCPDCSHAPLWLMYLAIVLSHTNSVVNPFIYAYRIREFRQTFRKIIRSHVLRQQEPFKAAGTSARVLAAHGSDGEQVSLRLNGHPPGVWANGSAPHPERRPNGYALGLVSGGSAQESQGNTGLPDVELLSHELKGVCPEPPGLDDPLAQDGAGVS

B1: dopamine receptor type 2 (receptor, UniProt P14416 1-443, looked up)
chain: MDPLNLSWYDDDLERQNWSRPFNGSDGKADRPHYNYYATLLTLLIAVIVFGNVLVCMAVSREKALQTTTNYLIVSLAVADLLVATLVMPWVVYLEVVGEWKFSRIHCDIFVTLDVMMCTASILNLCAISIDRYTAVAMPMLYNTRYSSKRRVTVMISIVWVLSFTISCPLLFGLNNADQNECIIANPAFVVYSSIVSFYVPFIVTLLVYIKIYIVLRRRRKRVNTKRSSRAFRAHLRAPLKGNCTHPEDMKLCTVIMKSNGSFPVNRRRVEAARRAQELEMEMLSSTSPPERTRYSPIPPSHHQLTLPDPSHHGLHSTPDSPAKPEKNGHAKDHPKIAKIFEIQTMPNGKTRTSLKTMSRRKLSQQKEKKATQMLAIVLGVFIICWLPFFITHILNIHCDCNIPPVLYSAFTWLGYVNSAVNPIIYTTFNIEFRKAFLKILHC
In the case of B1, the “fraction of D2R-A2AR complex relative to total A2AR (PLA puncta)” value was 12.3 ± 1.8% and the “fraction of D2R-A2AR complex relative to total D2R (PLA puncta)” value is 13.4 ± 5.3%.

Values taken from publication PMC7092707 (Biotechniques, 2019).
